Reference: a protein production outcome set (Wang et al. 2014)

Experiment: label from the status in PepcDB records
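Further: failed if final PepcDB status was selected cloned or expressed and not failed if soluble or beyond.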

Row | Sequence | protein production
1 | MLRPSVSLAFASSLPQQSVASRAVQRSPLPRRASGHGATEARGMPSHCFIRFCCIVLLAITGCSPAAQSRYAPERNFSDPKALALALAAEQGDAEEVRRLMKVEGVNPDTIFSKDGYPLLFWPIFTHSPAGLKAMLDNGADPNVALPYQTLDRGVRNNPNAMVWAAEQDDPIYLKMLLDHGGNPNTRNANNESLLFHAFIKQNKWDNIKLLVERGADINAVAGMGNSITAAYAIRGGFDFVYWLLQHGADPTIEFAYGNPVHLKDSGIIEAIFWHPGNPKDPQWQRQCQQWLLKRGYERPPLPENYRSMRKAFHFPSEEKEIPLL | failed
2 | LRKSEERWQLAIVGTDEAIWDWDILTNHTYRSDRWFEMLGYERHEMSTFDDEWSIRIHPDDYNRVMAAQAAYLRREVPVYYTEYRLRCKDGNYKWFRSRAKGVWDEQGNPIRLVGSLGDITGRKSIELD | not failed
3 | MAEANTPHIAIMPSPGMGHLIPFVELAKRLVQHDCFTVTMIISGETSPSKAQRSVLNSLPSSIASVFLPPADLSDVPSTARIETRAMLTMTRSNPALRELFGSLSTKKSLPAVLVVDMFGADAFDVAVDFHVSPYIFYASNANVLSFFLHLPKLDKTVSCEFRYLTEPLKIPGCVPITGKDFLDTVQDRNDDAYKLLLHNTKRYKEAKGILVNSFVDLESNAIKALQEPAPDKPTVYPIGPLVNTSSSNVNLEDKFGCLSWLDNQPFGSVLYISFGSGGTLTCEQFNELAIGLAESGKRFIWVIRSPSEIVSSSYFNPHSETDPFSFLPIGFLDRTKEKGLVVPSWAPQVQILAHPSTCGFLTHCGWNSTLESIVNGVPLIAWPLFAEQKMNTLLLVEDVGAALRIHAGEDGIVRREEVVRVVKALMEGEEGKAIGNKVKELKEGVVRVLGDDGLSSKSFGEVLLKWKTHQRDINQETSH | failed
4 | MKALMVFMTTAENGSFSDAARKLGVSPAAISQSIARLEQELEVRLFNRTTRQLTLTEDGRRFYAQCRGPVNNLDSAINQLKASRDEPAGHLRVSMPNSFGRRFILPIMGEFCERYPKVRVFFGLDDHFSDLIEDGYDVGVRTGMMPDSRMVARNLAQMPLYVVASPEYWDQHGRPSSPEELSGYDCINFQFPTSGRLFKWEFDRKGERIPLEVNGTYTLNDMEAVAELARLGMGVAQLPGHEVVHLIRSGELEPVLTDMVSLERSIYICFPHRDHIAPRTRVFVDFVVEKLADHPDIMADLPGLDLSAKRSALQQSVGVL | failed
5 | MSSALLRAAYAYDRLRAHPPEVAGQIATAMASAVHPKGEEPVFLELGVGTGRIALPLIARGYRYIALDADAAMLEVFRQKIAGVDRKVQVVQADARAIPLPDESVHGVIVVHLWHLVPDWPKVLAEAIRVLKPGGALLEGWDQAEASPEWTLQERWRAFAAEEGFPVERGLHAKRLKEVEEALRRLGLKPRTREVARWREERTPREALEALSERLYSFTQGLPEPVHARVMERLWAWAEAELGDLDRPFPVEKRFLLRVSRLG | not failed
6 | MSDGPLLNDVTRAFAEAHRNEDVRDLALKTKRTADLDLPAALDQIAGWQIARNKLPQWAACADIVYPAHISMEQCSSQFTAQYKAEIARRLLRSLPQSAGQTANDATMTDLTGGFGVDFSYLARGFGHATYVERQSHLCELAAHNMAALGLTQAQVVCGDGVEYLRAMEPAQLIYIDPARRDEHGARTYAIEDCTPDVLALRDLLLAKARYVMIKLSPMLDWRKAVDDFAGTVAEVHIVSTGNECKELLLVLDGKAAGATSDAAAADTRAPHVYCVNDDQRLDYDAAAYTRGLRIGDAPLPHELRYLYEPNASIMKAGCFDVVEARFGAVQIGPSSHLFVSDEPVDGFPGRGFAIETIGGMGKKELKRLLSGLDRANIAVRNFPLTAPQLRKKLKLADGGDAYLFGTTMQGGDHVLIRTAKISR | failed
7 | MTVPEEAQTLIGKHYRAPDHFLVGREKIREFAVAVKDDHPTHYSEPDAAAAGYPALVAPLTFLAIAGRRVQLEIFTKFNIPINIARVFHRDQKFRFHRPILANDKLYFDTYLDSVIESHGTVLAEIRSEVTDAEGKPVVTSVVTMLGLEHHHHHH | failed
8 | SPFDTGPELESQIRNQYGVDVHVVPVLDTLNEAETLDRVAMQAARTIGPLVDSNAIIGVAWGATLSAVSRHLTRKMTHDSIVVQLNGAGNMQTTGITYASDIMRRFGSAYGARVEQFPVPAFFDHASTKTAMWNERSVQRILDLQARMSIAIFGVGSVDSDYPSHVYAGGYLDEHDLTMLAADDVVGDVATVFFRSDGSSDGITLNERSTGPSHEQLRQVRRRICVVSGASKINGLQGALAAGLATDLILDEASARRLVSFNGH | not failed
9 | MFYILNNVLKNIKTLDNVKSKFFLKDSFLKNKLKANNLDDNLSSHIFFNEIFVSLRDDEKKEEHKKVLLFNKVRNDKKHRKRAFQKRGYWKKMHYFIRKNNMMSYAFKVQNIDYEKIKKLKRGEVYSN | failed
10 | MFEENEKEQLLYYERNKESEKCQKVWESIICKGLGYSKEEIRRDVERSRREKERLLSILYGSVFTGPKYLLYSKKWRGKTLNEIINEDREKNLNKNNFKNMDLDSTYFCELSFGYMDTAEENDDKNKKEITKQMEKKNDKVPNIRKGGNTNNSQNKRKTYHGEKNANTTNKDLDEFYSKLNYLEKRSYKNRYRNDNNNKKNNNNNNNNNNSNSNNNYYYYYSNGRSSYTNELSNEKNKYNEENSDEGNVIKYKYLPTGVFYSRVSKSFIANWIDDKTKKQVKIPYKISEYGIEKCMILAILSRNLRLSNLSNVLKYYDELTDSQKEQMLHAIRTTQKSEKLFEDIINRNGNKKNENNIINNYSNIHNDTSINNNNNNNNNNNNNIGNTIGTQHKNKNKQNANDQKNIPMKKKLIEKKKVKQSYVNEEKLPTGVYFYQGSYVANWWETNQKKQFKVPFKISEYGIARAKNLAIISRLIRSSSIPDINLILTQMENDHNLSDMDYTAISELAYKYIENMAKKE | failed
11 | MITTKLKLSVTNDYLLRINENRYVLIDTGYKEDWKLFLKRLKENGIKINEISYVILTHHHDDHVGFLNKLVSENKDIRVVMSDKTNELIKVGENDQTHGGGLINKRIEFLIRYKNMYVSKVLGVKKENNLKFPPYESRNNDIIFTGEVTLRELGIDLPGKIIETPGHTIDSISILFEDGDCFVGDAAANMLKLCGTKNCVIFIMDKKQYYESWDKMIKVGVKKVYPAHGGEFSVGRLKKNIWRNL | failed
12 | MSLSLYDSAHSLDGKSGWDTPVFSMKDSMDRNPMVTEAWEALCQSQVYFRGKPVGTIAAYDHASEEVLNYDQVFVRDFVPSALAFLMNGEPEIVKNFLLKTLHIQGQDKMIDKFKLGDGAMPASFKVLHNPIKKTDTIIADFGESAIGRVAPVDSGFWWIILLRAYTKSTGDHSLAERPECQKGMRLILSLCLSEGFDTFPTLLCADGCSMVDRRMGIYGYPIEIQALFFMALRSALSMLKHDSEGKEFMEKIVKRLHALSFHMRSYFWLDFQQLNDIYRYKTEEYSHTAVNKFNVIPDSIPDWIFDFMPLRGGYFVGNVSPARMDFRWFALGNCIAILSSLATPEQSMAIMDLIEARWEELVGEMPLKICYPAMESHEWGIVTGCDPKNTRWSYHNGGSWPVLLWLLTAASIKTGRPQIARRAIELAEARLLKDGWPEYYDGKSGRFIGKQARKSQTWSIAGYLVAKMMMDDPTHVGMISMEEEKHMKPPLRRSSSWT | failed
13 | MIQARSRRPLSCSLRSSSQNPIATTFLTGGKMDRIVRQILVKLLGGERSVYELIYYQDASLREFFELLNSLRDEGLIEVESGKVRITEKGREVAEKERLKFCGDVECECCEGTGLSINPYFKEILQKYSEIAKDRPETIEVYDQGFISLEGVIRRVEFVYDRGDLNGRIFVVGDDDLFGIAASLTGMPEKVAVVDIDERLINFINRVAEEYSLNVEAFVYDVQQAFPDELKRKFDVFVTDPVETIPGLKLFLSRGVSTLKGVGGAGYFGITTLEASRRKWYEIQRMIHDMGFIITDLRRRFNVYPEDEKNFFRFQEKLPIVRHLQAKVDFNWYNSTLFRIEAVKEPKPIVEGEMIIDEKVYKDDESWATPY | failed
14 | MSFWRPRLGLLDASVLSFAVLPTDLDFNRHMTNARYLSLMDLGRLDLILRSGMWRLVLRQSLQPVIGGALVRFRHALRPFQPFRLTTRVLAWDARWLFIEHRVETLDGKPACTAVVRAAFVASTGMLPTADLLTRLGYGGAAPDVPAWIAPWLQADLACQPASPPLENPL | failed
15 | MAVGKKDIECPPYAEGTPLSDADIKEKRVTYVEDHPDIRYSWTAGQAISKFLNGLKEGKILGVKCNKCGRVMVPPRMFCELCYKPIDGWVELKDTGTVETFSISYIDPDARPLPEPVIVAVISIDGASPHMGIMHILDEVKPEDVYIGMKVKAVWKSEEEREGAITDIKYWKPLEGLEHHHHHH | failed
16 | MLVCAAFSGGAGASDAGALLEAARRGDTAQVASLLERKVEVDAPSADGSTPLLLATANDHLAVARQLIEAGADVNRQNSRLDSPYLLAGAEGRLEILRLTLLHGADLKSTNRYGGTALIPACERGHVEVVKTLLQAGVDPNHVNKLGWTGLLEAILLSDGGPRHQEIVRLLIDAGADVNLADADGVSPLAHARQRGQGGIERLLLAAGAQ | failed
17 | MAQRVQLTATVSENQLGQRLDQALAEMFPDYSRSRIKEWILDQRVLVNGKVCDKPKEKVLGGEQVAINAEIEEEARFEPQDIPLDIVYEDEDIIIINKPRDLVVHPGAGNPDGTVLNALLHYYPPIADVPRAGIVHRLDKDTTGLMVVAKTVPAQTRLVESLQRREITREYEAVAIGHMTAGGTVDEPISRHPTKRTHMAVHPMGKPAVTHYRIMEHFRVHTRLRLRLETGRTHQIRVHMAHITHPLVGDPVYGGRPRPPKGASEAFISTLRKFDRQALHATMLRLYHPISGIEMEWHAPIPQDMVELIEVMRADFEEHKDEVDWL | not failed
18 | MRKYLAEFLGTFMLVFLGTATVVIAKGDVLAIGLAFGLAITVSAYAFGGISGGHFNPAVTTAMLINRRIDAADAIGYIIAQIIGAIVASAAVKSFVSALGLSATLLGQTDFPKIGSGMAFFVEALVTFLFLMVILNVTSNDHGNADFAGLTIGVTLAFLIIVALNLTGGSLNPARSIGPAIFAGGSALSHLWVYILAPEVGAILAAFCARVMGSED | failed
19 | MSLRLADFGFTDGINEIIAITENEDGSWNAAPIGIIVEDSSSDTAKAKLYRNRTRANLERSGVLFANVTDDALVFAVSSFGNLNDDWYASPNPPIIKGAMAWCRFEAEMRSGVAHLKLTDGEIIEKRVRAINRGLSAVIEALVHATRYVAIKSDERRKELLERIHYYREIVQKCGSEREKRAFEIIMEKIGEGHHHHHH | not failed
20 | MDKNNLEDLTGKKILRNGFGGLRLEYGTIFLDVGLFTYIVLILSIFFFLVERWFLGALTFVLHVPLLLLGIWCGER | failed
21 | MIPPSYCFYYFIHSGGLLSLKIRCENFIRSIADLIRKAEIELPDDVVNALRKAESIEENQVAKSQLQAILKNIEIAKNHAVPMCQDTGIMIFFAELGTEFQPGFDLEAAVRDAVVLATREIPLRPNAVDPLNRNNSGNNTGSGIPDIHWKLVPGKQLKITVSPKGAGSENMSALRMFNPTEAGSIKNFVLETVINAGGMPCPPLTLGIGIGGSFDKAARLAKEALLEPLDAPMNELEQEVLEAVNALGIGCMGLGGSTTALAVHIKTAHCHTASLPVAINIQCWANRHASIVFGEEE | failed
22 | MPSGLEQCAPRCRALLQGESGVQIQGHYELKFEAVREAFAALFEDSQERGAALCIQVGGETVIDLWAGTADKDGAEAWHSDTIANLFSCTKTFTAVTALQLVAEGKLKLDAPVADYWPEFAAAGKAAITLRQLLCHQAGLPAVRELLPAQALYEWQTMVDALAAEQPWWTPGEGHGYAAITYGWLVGELIRRADGRGPGESIVARVARPLGLDFHVGLADEEFYRVAHIARGKGNMGDAAAQRLLQVTMREPDAMSTRAFTNPPSILTSTNKPEWRRMQQPAANGHGNARSLAGFYSGLLDGSLLEADMLEELTREHSLGMDKTLLTQTRFGLGCMLDQPQVANATFGLGARAFGHPGAGGSIGFADPEHDVAFGFVTNTLGPYVLMDPRAQKLVRVLSDCLLEHHHHHH | failed
23 | MKSIRRGDGLNVVPFIDIMLVLLAIVLSISTFIAQGKIKVSLPNAKNAEKSQPNDQKVVVISVDEHDNIFVDDKPMNLEALSAVVKQTDPKTLIDLKSDKSSRFETFISIMDILKEHNHENFSISTQAQ | failed
